Laboratory results from the supplement of paper PMC9112550, “Optimization of the antimicrobial peptide Bac7 by deep mutational scanning” (BMC Biology, 2022).

System: Escherichia coli TOP10
Assay: shrunken log2 fold change of peptide-encoding DNA abundance (4.5 h post-induction vs induction); higher = less antimicrobial activity (less host growth inhibition)
Conditions: time post-induction: 4.5 h; library: site-saturation at positions 5, 18, 19, 20
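Further: peptides expressed intracellularly from a pBAD plasmid library in pooled LB shake-flask culture, induced with 0.3% L-arabinose, DNA abundance read by NGS, three biological replicates, DESeq2 with apeglm shrinkage.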

RRIRTRPPRLPRPRPRPEQMPRP
shrunken log2 fold change: 0.233

RRIRMRPPRLPRPRPRPYHIPRP
shrunken log2 fold change: -0.69

RRIRHRPPRLPRPRPRPYYEPRP
shrunken log2 fold change: 0.0317

RRIRIRPPRLPRPRPRPRINPRP
shrunken log2 fold change: -0.482

RRIRVRPPRLPRPRPRPHANPRP
shrunken log2 fold change: 0.25

RRIRGRPPRLPRPRPRPDKCPRP
shrunken log2 fold change: 0.627

RRIRGRPPRLPRPRPRPTKRPRP
shrunken log2 fold change: 0.533

RRIRCRPPRLPRPRPRPAAFPRP
shrunken log2 fold change: 0.292

RRIRPRPPRLPRPRPRPDQWPRP
shrunken log2 fold change: -0.0215

RRIRWRPPRLPRPRPRPYMHPRP
shrunken log2 fold change: -0.48

RRIRHRPPRLPRPRPRPIEDPRP
shrunken log2 fold change: 0.0058

RRIRLRPPRLPRPRPRPVVLPRP
shrunken log2 fold change: -0.0303

RRIRHRPPRLPRPRPRPCVCPRP
shrunken log2 fold change: 0.0978

RRIRHRPPRLPRPRPRPRESPRP
shrunken log2 fold change: -0.0496

RRIRVRPPRLPRPRPRPPSCPRP
shrunken log2 fold change: 0.187

RRIRKRPPRLPRPRPRPPMHPRP
shrunken log2 fold change: 0.636

RRIRTRPPRLPRPRPRPNMRPRP
shrunken log2 fold change: 0.33

RRIRQRPPRLPRPRPRPDFSPRP
shrunken log2 fold change: 0.0756

RRIRLRPPRLPRPRPRPCIDPRP
shrunken log2 fold change: -0.166

RRIRMRPPRLPRPRPRPPTQPRP
shrunken log2 fold change: 0.785

RRIRDRPPRLPRPRPRPGRVPRP
shrunken log2 fold change: 0.166

RRIRRRPPRLPRPRPRPSPRPRP
shrunken log2 fold change: 1.03

RRIRCRPPRLPRPRPRPSDHPRP
shrunken log2 fold change: -0.714

RRIRGRPPRLPRPRPRPCCEPRP
shrunken log2 fold change: 0.528

RRIRNRPPRLPRPRPRPSMMPRP
shrunken log2 fold change: -0.589

RRIRRRPPRLPRPRPRPDWWPRP
shrunken log2 fold change: -0.0208

RRIRVRPPRLPRPRPRPNQQPRP
shrunken log2 fold change: 0.0476

RRIRCRPPRLPRPRPRPNPKPRP
shrunken log2 fold change: 0.055

RRIRARPPRLPRPRPRPIERPRP
shrunken log2 fold change: 0.047

RRIRSRPPRLPRPRPRPPDLPRP
shrunken log2 fold change: 0.543

RRIRDRPPRLPRPRPRPNFDPRP
shrunken log2 fold change: -0.0173

RRIRGRPPRLPRPRPRPYCCPRP
shrunken log2 fold change: -0.0424

RRIRQRPPRLPRPRPRPLAAPRP
shrunken log2 fold change: 0.395

RRIRARPPRLPRPRPRPNEGPRP
shrunken log2 fold change: -0.175

RRIRMRPPRLPRPRPRPVMKPRP
shrunken log2 fold change: 0.0713

RRIRGRPPRLPRPRPRPATRPRP
shrunken log2 fold change: 0.94

RRIRFRPPRLPRPRPRPTFRPRP
shrunken log2 fold change: -0.0216

RRIRYRPPRLPRPRPRPPHKPRP
shrunken log2 fold change: -0.549

RRIRFRPPRLPRPRPRPFYNPRP
shrunken log2 fold change: -0.468

RRIRKRPPRLPRPRPRPAKSPRP
shrunken log2 fold change: 0.254

RRIRNRPPRLPRPRPRPWLRPRP
shrunken log2 fold change: -0.0603

RRIRFRPPRLPRPRPRPCGPPRP
shrunken log2 fold change: 0.243

RRIRARPPRLPRPRPRPRYMPRP
shrunken log2 fold change: -0.365

RRIRRRPPRLPRPRPRPVWHPRP
shrunken log2 fold change: 0.278

RRIRCRPPRLPRPRPRPSYPPRP
shrunken log2 fold change: -0.703

RRIRRRPPRLPRPRPRPELVPRP
shrunken log2 fold change: 0.27

RRIRHRPPRLPRPRPRPELNPRP
shrunken log2 fold change: -0.098

RRIRGRPPRLPRPRPRPWLDPRP
shrunken log2 fold change: 0.0661

RRIRPRPPRLPRPRPRPPQIPRP
shrunken log2 fold change: 0.138

RRIRRRPPRLPRPRPRPHGAPRP
shrunken log2 fold change: 0.284

RRIRWRPPRLPRPRPRPPMSPRP
shrunken log2 fold change: 0.095

RRIRLRPPRLPRPRPRPAILPRP
shrunken log2 fold change: 0.0331

RRIRKRPPRLPRPRPRPNQPPRP
shrunken log2 fold change: 0.146

RRIRSRPPRLPRPRPRPNCNPRP
shrunken log2 fold change: -0.473

RRIRHRPPRLPRPRPRPTGMPRP
shrunken log2 fold change: 0.156

RRIRPRPPRLPRPRPRPYCHPRP
shrunken log2 fold change: -0.241

RRIRSRPPRLPRPRPRPWARPRP
shrunken log2 fold change: 0.0355

RRIRARPPRLPRPRPRPERPPRP
shrunken log2 fold change: 0.556

RRIRARPPRLPRPRPRPDGGPRP
shrunken log2 fold change: 0.432

RRIRDRPPRLPRPRPRPIRMPRP
shrunken log2 fold change: -0.0588
